System: P04156
Conditions: AUC

For Recombinant huPrP (23-230) from E. coli, the “percent of total signal as aggregates” value was “about 71 % of total signal” and the “percent of total signal as large aggregates” value was 58.3 % of total signal.
